Our source for the stoichiometry N values is publication PMC6141027.

The experiment concerns the target griffithsin (GRFT). The experiment is described as follows: AUC.

A word on the stoichiometry N: it is a count of units in the complex or per binding partner. Substance griffithsin (GRFT) (natural protein) gave a stoichiometry N of 2.
